We go through 1 substance from patent US20180187211A1.

This assay addresses PDL1 on the surface of TC-1 cells (mouse (TC-1 murine tumor cell line)) (UniProt Q9EP73). In words: flow cytometry, staining of TC-1 tumor cells (background control).
Chain of UniProt Q9EP73 (Q9EP73 19-290): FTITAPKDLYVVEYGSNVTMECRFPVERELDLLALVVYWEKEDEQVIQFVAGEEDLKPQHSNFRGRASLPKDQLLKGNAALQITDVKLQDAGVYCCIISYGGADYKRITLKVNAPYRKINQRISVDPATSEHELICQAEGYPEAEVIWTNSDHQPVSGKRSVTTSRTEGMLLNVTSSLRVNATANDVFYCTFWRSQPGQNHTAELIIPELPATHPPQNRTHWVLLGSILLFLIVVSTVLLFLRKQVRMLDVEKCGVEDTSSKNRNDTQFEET

With PE-conjugated isotype control antibody, the median fluorescent intensity (MFI) was 184 MFI.
